The experiment addresses T1, biotinylated AFP158/HLA-A*02:01 tetramer (human, biotinylated via the BSP peptide linked to the C-terminal end of the HLA-A*02:01 extracellular domain).
T1 construct: also called AFP158 tetramer; not shown: BSP peptide (BirA biotinylation site) at the C-terminus
Briefly: flow cytometry, AFP158/HLA-A*02:01 tetramer staining of CAR-transduced T cells. (Flow cytometry measures light scatter and fluorescence of single cells or particles in a stream.)

This is an account of results in patent US20220265715A1 (EUREKA THERAPEUTICS, published 2022).

B1: Anti-AFP-CD28z-CAR (other)
chain: QSVLTQPASVSGSPGQSITISCTGTSSDVGGYNYVSWYQQHPGKAPKLMIYDVNNRPSEVSNRFSGSKSGNTASLTISGLQAEDEADYYCSSYTTGSRAVFGGGTKLTVLGSRGGGGSGGGGSGGGGSLEMAEVQLVQSGAEVKKPGESLTISCKASGYSFPNYWITWVRQMSGGGLEWMGRIDPGDSYTTYNPSFQGHVTISIDKSTNTAYLHWNSLKASDTAMYYCARYYVSLVDIWGQGTLVTVSSEQKLISEEDLAAAIEVMYPPPYLDNEKSNGTIIHVKGKHLCPSPLFPGPSKPFWVLVVVGGVLACYSLLVTVAFIIFWVRSKRSRLLHSDYMNMTPRRPGPTRKHYQPYAPPRDFAAYRSRVKFSRSADAPAYQQGQNQLYNELNLGRREEYDVLDKRRGRDPEMGGKPRRKNPQEGLYNELQKDKMAEAYSEIGMKGERRRGKGHDGLYQGLSTATKDTYDALHMQALPPR
notes: Chimeric antigen receptor on transduced primary human T cells: anti-AFP/MHC scFv, myc tag, CD28 TM, CD28 costimulatory domain, CD3zeta; also called αAFP -CD28z CAR
B1: the binding result is given as “binds”.

B2: Anti-AFP-CD30z-CAR (other)
chain: QSVLTQPASVSGSPGQSITISCTGTSSDVGGYNYVSWYQQHPGKAPKLMIYDVNNRPSEVSNRFSGSKSGNTASLTISGLQAEDEADYYCSSYTTGSRAVFGGGTKLTVLGSRGGGGSGGGGSGGGGSLEMAEVQLVQSGAEVKKPGESLTISCKASGYSFPNYWITWVRQMSGGGLEWMGRIDPGDSYTTYNPSFQGHVTISIDKSTNTAYLHWNSLKASDTAMYYCARYYVSLVDIWGQGTLVTVSSEQKLISEEDLAAATGAPPLGTQPDCNPTPENGEAPASTSPTQSLLVDSQASKTLPIPTSAPVALSSTGKPVLDAGPVLFWVILVLVVVVGSSAFLLCHRRACRKRIRQKLHLCYPVQTSQPKLELVDSRPRRSSTQLRSGASVTEPVAEERGLMSQPLMETCHSVGAAYLESLPLQDASPAGGPSSPRDLPEPRVSTEHTNNKIEKIYIMKADTVIVGTVKAELPEGRGLAGPAEPELEEELEADHTPHYPEQETEPPLGSCSDVMLSVEEEGKEDPLPTAASGKRVKFSRSADAPAYQQGQNQLYNELNLGRREEYDVLDKRRGRDPEMGGKPRRKNPQEGLYNELQKDKMAEAYSEIGMKGERRRGKGHDGLYQGLSTATKDTYDALHMQALPPR
notes: Chimeric antigen receptor on transduced primary human T cells: anti-AFP/MHC scFv, myc tag, CD30 TM, CD30 costimulatory domain, CD3zeta; also called αAFP -CD30z CAR
Take B2: the binding result is “binds”.
